Reference: patent US6093692A, “Method and compositions for lipidization of hydrophilic molecules” (The University of Southern California, priority 1997, dated 2000)
Where two headings read alike, the source gives them in different places.

Key:
[1] = system: C3H 10T1/2(clone 8) cells; experiment: In vitro transformation assay (MCA-induced); format: cell-based; details: for Transformed foci / Fraction of dishes containing transformed foci / No. of dishes with transformed foci/No. of dishes: MCA 1 μg/ml 24 hr, conjugates 1.0 μg/ml first three weeks; for Fraction of dishes containing transformed foci / No. of dishes with transformed foci/No. of dishes: scored at six weeks
Procedure: Transformation assays were carried out using C3H 10T1/2(clone 8) cells according to the published recommendations [Reznikoff, C. A., et al., Cancer. Res., 33:3239-3249 (1973); Reznikoff, C. A., et al., Cancer. Res., 33:3231-3238 (1973)]. Stock cultures of mycoplasma-free cells were maintained by passing 50,000 cells per 75 cm^2 flask every seven days. Using this schedule, the cells were always passed approximately 2 days before reaching confluence. The stock culture was grown in Eagle's basal medium supplemented with 10% FBS, penicillin (100 units), and streptomycin (100 μg) and used for the transformation assays at passages of 9 to 14. The cells were passed by treating the stock cells with trypsin (0.1%) in PBS for 5 min and quenching the trypsin with 5 ml of the medium. This procedure was adapted to minimize spontaneous transformation in the stock cultures and maximize the plating efficiency in the petri dishes. The FBS stock used in the cultures was pre-screened to ensure that the serum was able to support the expression and the growth of the transformed cells.
For the transformation assays, C3H 10T1/2 cells (1000/dish) were seeded into 60 mm petri dishes and allowed to grow in a humidified 5% CO2 atmosphere in Eagle's basal medium, supplemented with 10% FBS, penicillin (100 units), and streptomycin (100 μg), for 24 hr. Subsequently, the cells were initiated by treatment with 25 μl of the 3-methylcholanthrene (MCA) in acetone stock solution ([…]) to a final concentration of 1 μg/ml of MCA (5 μg/5 ml). The cells were allowed to grow in the presence of the carcinogen or solvent for 24 hr, and the medium in each dish was then replaced with fresh medium containing no carcinogen or solvent. The medium in the dishes was replaced twice per week for the first two weeks of the assay, and thereafter once a week for the remainder four weeks of the assay. In the experiments designed to determine the transformation inhibitory activity of the conjugates, the cells were maintained in the medium containing the conjugates (1 μg/ml) for the first three weeks of the assay; thereafter, the cells were maintained in medium containing no added conjugates.
Six weeks after the carcinogen treatment, the cells were inspected under a microscope for adherence to the culture dishes and were washed with PBS and then fixed in 100% methanol. The fixed monolayers were then stained with Giemsa stain. Twenty dishes per group were treated in each experiment. In addition to the test groups, all the transformation assays contained at least three other groups: negative control (not treated with carcinogen or solvent), acetone control (treated with 25 μl of acetone), and positive control [treated with MCA (1 μg/ml) in 25 μl of acetone]. The transformed foci (>3 mm in diameter) in the plates were studied under a microscope and classified according to published guidelines as types I, II, or III [Landolph, J. R., Transfomatin assay of established cell lines: Mechanism and Application (ed. Kakunaga, T., and Yamasaki, H.) IARC Scientific Publications, Lyon, France pp. 185-201 (1985)]. Briefly, type III foci were dense, multilayered, basophilic, areas of cell growth which stained to a deep blue color with Giemsa and had rough crisscrossed edges. Type II foci were also dense, multilayered, areas of cell growth, but were stained to a purple color with Giemsa and had smoother, more defined edges compared to Type III foci. Type I foci were not scored in the assay.
BBI, either as the free protein or in conjugated form to palmitic or oleic acid, was added to the cultures at 1.0 μg/ml for the first three weeks of the transformation assay period starting immediately after the MCA treatment. MCA-treated cells were exposed to 3-methylcholanthrene, dissolved in 25 μl of acetone, at a concentration of 1 μg/ml for 24 hr. Acetone-treated cells were exposed to 25 μl of acetone for 24 hr only. […]

C3H 10T1/2 cells = experiment: Plating efficiency; format: cell-based
Procedure: The plating efficiency (PE) of the cells was also studied in conjunction with each of the transformation assays. To determine the PE of the cells in the different treatment groups, cells (200 cells/dish) were seeded into three 60-mm petri dishes per experiment group and treated in the identical manner as the transformation assay cells. The cells in these assays were terminated at 10 days, fixed with 100% methanol, and stained with giemsa; the colonies of 50 cells or more visible under a microscope were then counted. The plating efficiency is defined as the (number of colonies/number of cells seeded)×100%.

Caco-2 cells = format: cell-based, Human
Procedure: Human colon carcinoma cells (Caco-2) were detached from 25 cm^2 stock culture flasks using a 10 min incubation at 37° C. with 0.5 ml of a trypsin/EDTA solution (0.5% trypsin, 5.3 mM EDTA). The cells were then suspended in 5 ml of Dulbecco's minimum essential medium, supplemented with 15% fetal bovine serum (FBS), L-glutamine (1%), and essential amino acids (1%), and counted using a coulter counter.
Radioiodination of BBI and BBIssPal was carried out using the chloramine-T method [McConahey, P. C. and Dixon, F. J., Meth. Enzymol., 70:221-247 (1980)]. Confluent, 14-day old cell monolayers were washed once with, and then incubated in, serum-free Dulbecco medium at 37° C. for 30 min. Subsequently, the incubation medium was replaced with serum free medium containing ^125 I-BBI (10 μg/ml), either as native-BBI or as BBIssPal or BBIssOleic, and the monolayers were incubated for a further 60 min at 37° C. The monolayers were then washed three times with ice-cold PBS, and then exposed to trypsin (0.5%, EDTA 5.3 mM) for 10 min at 37° C. The detached cells were transferred to tubes, isolated by centrifugation, washed three times using ice-cold PBS, assayed for accumulated radioactivity using a gamma counter, and finally assayed for cell protein using the published method [Lowry, O. H., et al., J. Biol. Chem., 193:265-275 (1951)].
In some experiments the uptake of reduced ^125 I-BBIssPal into cells was determined. ^125 I-BBIssPal was reduced with DTT (50 mM) at 60° C. for 5 min followed by a further 25 min at 37° C. In control experiments, ^125 I-BBIssPal was exposed in medium to the same temperatures without being exposed to DTT.
The uptake of ^125 I-BBIssPal in the presence of BSA (fatty acid free) was determined as follows. ^125 I-BBIssPal was incubated with medium containing 0.1% BSA for 30 min at 37° C. before being added to the cell monolayers. In some uptake experiments, BSA was first mixed with a 3-fold molar excess of palmitic acid, and then incubated with the conjugates prior to the experiments. In the experiments where the uptake of ^125 I-BBIssPal was determined in medium containing FBS, the conjugates was simply added to the medium containing the required amount of FBS.
The cell monolayers were incubated with ^125 I-labeled conjugates at 10 μg/ml for 60 min at 37° C. The results presented are the average of three monolayers ±SEM. The uptake experiments were carried out in Dulbecco medium, in the presence and absence of added FBS.
The cell uptake of ^125 I-BBI, either as the native protein or as BBIssPal was determined before and after reduction with DTT (50 mM) for 5 min at 60° C. and 25 min at 37° C.
The uptake experiments were carried out in Dulbecco medium, in the presence and absence of added fatty acid-free BSA (BSA) or fatty acid-loaded BSA (BSA/FA). The results of studies of the uptake of ^125 I-BBI, either as the native-BBI or in conjugated form to palmitic or oleic acid, in Caco-2 cells in the presence of serum-free medium are presented in FIG. 1. The results are shown as the average ng of BBI internalized ±SEM, n=3. The uptake of ^125 I-BBIssPal into the cells was approximately 100-fold higher than that of ^125 I-BBI. […] The difference between the uptake of ^125 I-BBIssPal and ^125 I-BBIssOleic were significant.

[2] = set-up: species or system CF-1 mice; details: mouse, in vivo, iv, 3 mg/kg
Procedure: Female CF-1 mice, […], weighing 20-25 g each, with free access to food and water prior to the experiments, were used for the animal experiments. ^125 I-BBI (3 mg/kg), as native-BBI or as BBIssPal or BBIssOleic conjugate, was administered to the animals via the tail vein. At 0.5, 3, and 24 hr post-injection, 3 animals from each experiment group were sacrificed and their blood (200 μl), the kidneys, the lungs, and the liver were removed, rinsed in ice-cold PBS, and assayed for accumulated radioactivity. The weights of the organs were recorded and used to adjust the concentration of the conjugates in the organs.

| Molecule | Transformed foci [1] | Fraction of dishes containing transformed foci [1] | No. of dishes with transformed foci/No. of dishes [1] | Plating Efficiency (C3H 10T1/2 cells; 200 cells/dish, 10 days, treated as in the transformation assay) [%] | Effect of fatty acid-loaded BSA on uptake (Caco-2 cells) | Reduction of uptake after reduction with DTT (Caco-2 cells) | Reduction of uptake by defatted-BSA (Caco-2 cells) | Blood levels and removal from circulation [2] | Kidney accumulation [2] | Plating Efficiency (C3H 10T1/2 cells) [%] | Uptake, fold higher than that of BBI (Caco-2 cells) | Blood levels, fold higher than BBI [2] | Kidney clearance, fold lower than native-BBI [2] | Liver accumulation, fold higher than BBI [2] | Lung accumulation/levels, fold higher than BBI [2] | Retention in the liver [2] | Retention of anti-transformation activity of BBI ([1]; 1.0 μg/ml) |
| --- | --- | --- | --- | --- | --- | --- | --- | --- | --- | --- | --- | --- | --- | --- | --- | --- | --- |
| Cc1ccc2cc3c(ccc4ccccc43)c3c2c1CC3 [MCA, 3-methylcholanthrene, reference compound] | 6 out of the 19 dishes scored contained type III foci | 0.32 | 6/19 | 21 ± 3.0 | – | – | – | – | – | – | – | – | – | – | – | – | – |
| BBI: a hydrophilic protein which has low uptake into cells and is not orally bioavailable (protein, UniProt P01055 40-110, looked up) Bowman-Birk type proteinase …: DDESSKPCCDQCACTKSNPPQCRCSDMRLNSCHSACKSCICALSYPAQCFCVDITDFCYEPCKPSEDDKEN | no transformed foci | 0 | 0/20 | – | not affected | did not cause a reduction in the uptake | not affected | rapidly excreted from the body without attaining high blood levels | rapidly accumulated in the kidneys | 24 ± 2.0 | – | – | – | – | – | – | – |
| BBIssOleic: the oleic acid conjugated BBI (conjugate, UniProt P01055 40-110, looked up, oleyl disulfide conjugate; 125I, the oleic acid conjugated BBI) Bowman-Birk type proteinase …: DDESSKPCCDQCACTKSNPPQCRCSDMRLNSCHSACKSCICALSYPAQCFCVDITDFCYEPCKPSEDDKEN | no transformed foci | 0 | 0/20 | – | – | – | – | higher blood levels than BBI | – | 24 ± 3.5 | about 108 fold | about 4 fold | about 4 fold | about 4 fold | about 2 fold | significant levels of the conjugate present in the liver even at 24 hr post-injection | retained the original biological activity of BBI |
